Reference: patent US6645501B2, “Anti-pathogen system and methods of use thereof” (Washington University, priority 1997, dated 2003)
Entries after “also recorded” stand apart in the source; their conditions may differ.

Key:
[1] = tested on: Jurkat T-cells infected by HIV; experiment: Cleavage of transduced p16 fusion proteins in HIV-infected Jurkat T-cells, Western/immunoblot with anti-p16 antibody; type: cell-based; conditions: after 4, 8 and 12 hours
Procedure: Purified p16 fusion proteins were individually transduced into Jurkat T-cells infected by HIV. Methods for infecting the Jurkat T-cells with HIV and transducing fusion proteins are described in examples, which follow. After 4, 8 and 12 hours, the cells are analyzed for cleavage of the fusion protein by Western/immunoblot analysis using a commercially available anti-P16 antibody (Santa Cruz). As a control, the p16 cDNA was fused to the pTAT vector described in Example 1 to produce the vector shown in FIG. 3D (no HIV protease cleavage site). That vector encoded a p16 fusion protein fused to TAT that was not cleaved in the infected cells.

[2] = tested on: Jurkat T cells; experiment: FACS and confocal analysis of FITC-labeled TAT fusion proteins added to Jurkat T cells; type: cell-based; conditions: for cells transduced: FITC-labeled protein added to media of Jurkat T cells
Procedure: To test the ability of TAT-Casp3 proteins to transduce into cells, TAT-Casp3 proteins were conjugated to fluorescein (FITC), then added directly to the media of Jurkat T cells and analyzed by Flow Cytometry (FACS) (FIGS. 9B-C). Both TAT-Casp3WT and TAT-Casp3MUT proteins rancidly transduced into ˜100% of cells, achieving maximum intracellular concentration in less than 20 min. In addition, based on the narrow peak width before and after addition of FITC labeled proteins, individual cells within the population contain near identical intracellular concentrations of TAT-Casp3-FITC protein. […] Thus, TAT-Casp3 proteins readily transduce into 100% of all cells inca rapid and concentration-dependent fashion.
The generation and transduction of TAT fusion proteins shown in FIGS. 9A-E are explained in more detail as follows: FIG. 9A. Diagram depicting HIV cleavage site sequences and domains of TAT fusion proteins. FIGS. 9B-D. FACS kinetic analysis of fluorescein (FITC) labeled TAT-Casp3WT, TAT-Casp3MUT and TAT-HIV Pr proteins added to cells at 0, 20 and 30 min. FIG. 9E. FACS dose analysis of 3, 6, and 12 nM TAT-Casp3WT-FITC protein added to cells at I hr post-addition. Note rapid, concentration-dependent transduction of all FITC labeled protein into ˜100% of cells and near identical intracellular concentration within the population as measured by FACS peak width of control vs. transduced cells.
(§1) 1. […] See Lissy, N. A., et al. (supra). […] See Ezhevsky, S. A., et al. (supra). […] See Xiang, J., et al., (supra). […] See Xiang, J., et al., (supra). […] See Ezhevsky, S. A., et al. (supra).

[3] = target: T1, HIV Protease (Human immunodeficiency virus type 1 group M subtype B, UniProt P04585); experiment: In vivo substrate cleavage by co-transduced TAT-HIV Pr in Jurkat T cells, immunoblot; type: cell-based; conditions: 100 nM substrate, 50 nM TAT-HIV Pr, Jurkat T cells, immunoblot
T1 construct: PCR cloning the HIV Protease gene from HXB2R HIV strain; 6xHis (from the pTAT vector) (N); made in house; the purified protein was added to Jurkat T cells
Procedure: To assay for in vivo cleavage, p 16(−) Jurkat T cells were transduced with 100 nM TAT-Ap16 or control TAT-p16 protein (no HIV cleavage site) alone or in combination with 50 nM TATHIV Pr fusion protein for 5 hr and analyzed by anti-p16 immunoblot for in vivo cleavage at the HIV A proteolytic cleavage site (FIG. 10A). […] Size analysis of the cleaved TAT-A-p 16 protein was consistent with retention of the residual HIV half site present on the N′ terminus of p 16 (FIG. 10A, see lane 4 vs. 5).
Further, the TAT-Casp3MUT protein was transduced in combination with TAT-HIV Pr protein into cells (FIG. 10B).
The in vivo processing in co-transduced cells shown in FIGS. 10A and 10B is explained in more detail as follows. FIG. 10A. Cultures of p16(−) Jurkat T cells were transduced with TAT-p 16 or TAT-A-p 16 substrate proteins in combination with TATHIV Pr proteins for 5 hr and subjected to anti-p 16 immunoblot analysis. […] WCE, HepG2 whole cell lysate containing wild type endogenous p16; A-p16, cleaved TAT-A-16 product retaining the HIV half site on p16. FIG. 10B. Cultures of Jurkat T cells were transduced with TATCasp3MUT protein (TAT-“D” site-p 17 domain-“A” site-p12 domain) alone or in combination with TAT-HIV Pr (Pr) protein as indicated and immunoblotted with anti-Caspase-3 antibodies specific for the p17 domain. TAT-D-p17-A, cleaved product of TAT-Casp3 containing the N′ terminal HIV A half site.
as §1

[4] = tested on: Jurkat T cells; experiment: Cytotoxicity of TAT-Casp3 on uninfected Jurkat T cells, viability by Trypan Blue exclusion; conditions: co-transduced with TAT-HIV Pr
Procedure: In addition, the ability of TAT-Casp3 protein to induce apoptosis in cells co-transduced with TAT-HIV Pr protein was tested. Jurkat T cells were treated with 100 nM TAT-Casp3WT or TATCasp3MUT proteins alone or in combination with 50 nM TAT-HIV Pr protein and assayed for cell viability 16 hr post-treatment (FIG. 11A). […] See Salvensen, G. S., et al., Henkart, P. A., Cohen, G. M., Woo, M., et al., Enari, M. et al., Liu, X., et al. (supra).
FIG. 11A Cultures of Jurkat T cells were transduced with combinations of TAT-Casp3WT (WT), TAT-Casp3MUT (MUT) and TAT-HIV Protease (Pr) proteins for 16 hr and analyzed for cell viability. […] FIG. 11B Cultures of Jurkat T cells were co-transduced with TAT-Casp3WT (WT), TAT-Casp3MUT (MUT) proteins in combination with TAT-HIV Pr (Pr) protein and analyzed for kinetics of cell viability as indicated.
1. Cell culture-p16(−) Jurkat T cells (ATCC) were grown as described. See Lissy, N. A., et al. (supra). For in vivo substrate cleavage, 1×10^6 cells were transduced with 100 nM TAT-p16, TAT-A-p16, TAT-Casp3MUT and/or 50 nM TAT-HIV Pr proteins for 1, 5 or 8 hr as indicated and analyzed by anti-p16 (Santa Cruz) or anti-Casp3 (Pharmingen) immunoblot analysis. See Ezhevsky, S. A., et al. (supra). For cytotoxicity of TAT-Casp3 on uninfected cells, 1×10^6 cells were transduced with 100 nM TAT-Casp3WT, TAT-Casp3MUT and/or 50 nM TAT-HIV Pr proteins for 16 hr and assayed for viability by Trypan Blue exclusion and/or genomic DNA damage by TUNEL assay (Trevigen). Number of TUNEL positive cells reported as per high-powered microscopic field with four fields per experiment averaged. TAT-Casp3 activity was measured by incubation of 20 μg of whole cell lysate with 50 μM DEVD-AFC and fluorescent AFC formation measured on a FL500 microplate fluorescence reader (Bio-Tek) as described. See Xiang, J., et al., (supra). Cells were preincubated with 1 μg/ml Ritonavir (Abbott Labs) for 1 hr prior to transduction. For cytotoxicity of TAT-Casp3 on infected cells, Jurkat cultures were infected with 100 ng p24 Ag equivalent NLHX HIV-I strain for 7-14 days, assayed microscopically for cytopathic effects, then replated at 1×10^6/ml and transduced with 100 nM of TAT-Casp3WT or TAT-Casp3MUT proteins for 16 hr followed by exclusionary dye viability analysis. Infected cells were pretreated with 1 μg/ml Ritonavir for 24 hr prior to transduction with TAT-Casp3WT protein. See Xiang, J., et al., (supra). For Flow Cytometry (FACS) analysis, fluorescein (FITC) conjugated TAT fusion proteins were added to Jurkat T cell culture media and 1×10^4 cells were analyzed by FACS as described. See Ezhevsky, S. A., et al. (supra).

[5] = tested on: Jurkat T cells; experiment: TUNEL assay for degraded genomic DNA in transduced Jurkat T cells; type: cell-based
Procedure: (§2) Additionally, transduced cultures were tested for degraded genomic DNA by TUNEL assay. See Coates, P. J., Molecular methods for the identification of apoptosis in tissues. J. Histotechnology 17: 261 (1994). […] Activation of TAT-Casp3 was also assayed by its ability to cleave an artificial Caspase-3 substrate. […] See Xiang, J., et al., Bax-induced cell death may not require interleukin 1B-converting enzyme-like proteases. Proc. Natl. Acad. Sci. USA 93: 14550 (1996).
(§3) The HIV Protease activates TAT-Casp3WT protein shown in FIGS. 12A-B are explained in more detail as follows. FIG. 12A. […] Abscissa: TUNEL positive cells per high-powered microscopic field; Ctrl, control addition of PBS to cultures; error bars represent SD. FIG. 12B. […] Ctrl, control PBS addition; ocFAS crosslinking, positive control.
as §1

[6] = tested on: caspase-3 activity (DEVD-AFC cleavage); experiment: Caspase-3 enzyme assay, cleavage of DEVD-AFC by whole cell lysate of transduced Jurkat T cells; type: cell-based; conditions: 6 hr
Procedure: as §2, §3, §1

[7] = tested on: Jurkat T cells infected with the NLHX strain of HIV-I; experiment: Cytotoxicity of TAT-Casp3 on HIV infected Jurkat cultures, exclusionary dye viability analysis; type: cell-based
Source text: To make this determination, Jurkat T cells were infected for 7-14 days with the NLHX strain of HIV-I and examined microscopically for HIV cytopathic effects. See Westervelt, P., et al., Identification of a determinant within the HIV-1 surface envelope glycoprotein critical for productive infection of cultured primary monocytes. Proc. Natl. Acad. Sci USA 88: 3097 (1991). At the start of each transduction experiment approximately 50% of the culture was HIV positive. HIV infected cultures were transduced for 16 hr with 100 nM TAT-Casp3WT or TATCasp3MUT protein and then assayed for cell viability (FIG. 13). […] In addition, we detected both the appearance of cells containing <2N DNA content and cells with condensed nuclei in TAT-Casp3 treated cells.
To determine if TAT-Casp3WT induced apoptosis was dependent on active HIV Protease in the infected cultures, HIV infected cultures were pretreated with 1 μg/ml Ritonavir prior to transduction with 100 nM TAT-Casp3WT protein (FIG. 5). […] In addition, the observed increased survival of Ritonavir treated cells is consistent with increased longevity of protease inhibitor treated HIV infected cells. See Coffin, J. M., et al. (supra).
The specific killing of HIV infected cells shown in FIG. 5 is explained in more detail as follows. Jurkat T cells were infected for 7-14 days with HIV strain NLHX, then transduced with TAT-Casp3WT (WT) or TAT-Casp3MUT (MUT) proteins for 16 hr and assayed for cell viability. […] Ctrl, control addition of PBS to cultures; abscissa, % viability of HIV positive cells in the population at start of transduction; error bars represent SD.
as §1

Row | Molecule | cleavage of the fusion protein in HIV-infected cells [1] | cells transduced [2] | cleavage at the HIV cleavage site when co-transduced with TAT-HIV Pr [3] | dose analysis of protein transduction ([2]; 3, 6 and 12 nM, 1 hr post-addition, at equilibrium) | intracellular localisation by confocal microscopy ([2]; FITC-labeled protein) | appearance of cells containing <2N DNA content [4] | earliest detection of cellular death post-transduction [4] | kinetic analysis of cell death (shape of curve) [4] | TUNEL positive cells, protein transduced alone ([5]; 100 nM TAT-Casp3 or 50 nM TAT-HIV Pr) | TUNEL positive cells, co-transduced with TAT-HIV Pr ([5]; 100 nM plus 50 nM TAT-HIV Pr) | caspase activity, co-transduced with TAT-HIV Pr ([6]; 100 nM plus 50 nM TAT-HIV Pr) | caspase activity, protein transduced alone [6] | effect on viability of HIV positive cells ([7]; 100 nM, 16 hr, cultures approximately 50% HIV positive) | appearance of cells containing <2N DNA content and cells with condensed nuclei ([7]; HIV infected cultures)
1 | TAT-p16: control TAT-p16 fusion protein with no HIV cleavage site (protein, left off: small tags and cut ends, control TAT-p16 fusion protein with no HIV cleavage site) GRKKRRQRRRGMEPAAGSSMEPSADWLATAAARGRVEEVRALLEAGALPNAPNSYGRRPIQVMMMGSARVAELLLLHGAEPNCADPATLTRPVHDAAREGFLDTLVVLHRAGARLDVRDAWGRLPVDLAEELGHRDVARYLRAAAGGTRGSNHARIDAAEGPSDIPD | not cleaved | 100% | not cleaved | – | – | – | – | – | – | – | – | – | – | –
2 | TAT-Casp3WT: TAT-D site-p17-A site-p12 modified Caspase-3 fusion protein, Pro domain replaced by TAT transduction domain (protein, left off: small tags and cut ends, TAT-D site-p17-A site-p12 modified Caspase-3 fusion protein, Pro domain replaced by TAT transduction domain) GRKKRRQRRRGYPYDVPDYACTERQANFLGKIWPGISLDNSYKMDYPEMGLCIIINNKNFHKSTGMTSRSGTDVDAANLRETFRNLKYEVRNKNDLTREEIVELMRDVSKEDHSKRSSFVCVLLSHGEEGIIFGTNGPVDLKKITNFFRGDRCRSLTGKPKLFIIQACRGTELDCGIETSQVSQNYPIVQNLQGVDDDMACHKIPVEADFLYAYSTAPGYYSWRNSKDGSWFIQSLCAMLKQYADKLEFMHILTRVNRKVATEFESFSFDATFHAKKQIPCIVSMLTKELYFYH | – | ~100% | – | concentration-dependency | both cytoplasmic and nuclear compartments | detected | 4 h | linear killing curve | only background levels; also recorded: remained at background levels | marked increase; also recorded: specific TUNEL positive cells | marked increase in caspase activity that was greater than αFAS treatment; also recorded: specific activation of caspase-3 activity | only background levels | dramatic loss of HIV positive cells; also recorded: efficiently kills a large percentage of HIV positive cells | detected
